Experimental data from article PMC2615625.

How the values were obtained:
[1] = biological target: T1, NM23-H2 wild type (UniProt P22392 1-152); test: EMSA with FRET detection
[2] = biological target: NM23-H2 K12A (UniProt P22392 1-152, K12A); test: EMSA with FRET detection
[3] = biological target: NM23-H2 H118C (UniProt P22392 1-152, H118C); test: EMSA with FRET detection
[4] = biological target: T1, NM23-H2 wild type; test: EMSA

T1 sequence (P22392 whole entry): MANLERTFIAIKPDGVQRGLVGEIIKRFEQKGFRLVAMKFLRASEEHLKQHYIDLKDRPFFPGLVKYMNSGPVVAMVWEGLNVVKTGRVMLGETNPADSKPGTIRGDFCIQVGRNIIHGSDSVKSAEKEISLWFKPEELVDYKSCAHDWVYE
Sequence of NM23-H2 K12A (P22392 whole entry K12A): as the sequence (P22392 whole entry) above, with K12A counted along it
Sequence of NM23-H2 H118C (P22392 whole entry H118C): as the sequence (P22392 whole entry) above, with H118C counted along it

Binder	binding result [1]	binding result [2]	binding result [3]	binding result [4]
TGGGGAGGGTGGGGAGGGTGGGGAAGG (structured_DNA) [FG27T]	binds	binds	binds	–
TGGGGAGGGTGGGGAGGGTGGGGAAGG (structured_DNA) [c-MYC NHE G4 27-mer]	–	–	–	binds
